From the supplement of paper PMC10598134 come the findings set out here.

± gives the standard deviation.

This data set in a line: collision cross section of modified peptide (TIMS, N2, iRT-aligned); higher = larger / more extended gas-phase ion. The procedure:
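1/K0 was aligned run-wise to spiked iRT peptides and converted to CCS in N2 (Mason-Schamp). Values are the mean of 1-3 technical replicates for the most abundant feature at each charge state.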

[1] abbreviates: charge state: 2, modification: Methyl (K).
Where [2] appears, read: charge state: 3, modification: Methyl (K).
Setting [3] is: charge state: 3, modification: Crotonyl.
[4] abbreviates: charge state: 2, modification: Propionyl.
The mark [5] stands for this setting: charge state: 3, modification: Hydroxyproline.
The mark [6] stands for this setting: charge state: 2, modification: GlyGly (K).
Setting [7] is: charge state: 3, modification: GlyGly (K).
[8] abbreviates: charge state: 3, modification: Methyl (R).
The mark [9] stands for this setting: charge state: 2, modification: Crotonyl.
Setting [10] is: charge state: 2, modification: Hydroxyproline.
The mark [11] stands for this setting: charge state: 2, modification: Nitro (Y).
Where [12] appears, read: charge state: 2, modification: Dimethyl (K).
Setting [13] is: charge state: 3, modification: Dimethyl (K).
[14] abbreviates: charge state: 2, modification: Succinyl.
The mark [15] stands for this setting: charge state: 3, modification: Succinyl.
Setting [16] is: charge state: 3, modification: hydroxyisobutyryl.
Setting [17] is: charge state: 2, modification: Biotin.
[18] abbreviates: charge state: 2, modification: Malonyl.
The mark [19] stands for this setting: charge state: 2, modification: Formyl.
The mark [20] stands for this setting: charge state: 3, modification: Formyl.
Setting [21] is: charge state: 2, modification: hydroxyisobutyryl.
[22] abbreviates: charge state: 2, modification: Phospho (Y).
The mark [23] stands for this setting: charge state: 2, modification: HexNAc (ST).
[24] abbreviates: charge state: 3, modification: HexNAc (ST).
[25] abbreviates: charge state: 3, modification: Trimethyl (K).

On to “VGVEVPDVNIEGPEGKLK [_VGVEVPDVNIEGPEGK(Methyl (K))LK_]”, for which the collision cross section reads like this: under setting [1], 459.11 ± 16 Å²; under setting [2], 535.61 ± 7.1 Å².
The sequence “IHNAENIQPGEQKYEYK [_IHNAENIQPGEQK(Crotonyl)YEYK_]” gave a collision cross section under setting [3] of 531.58 ± 2.8 Å².
LLEQKTQESQK [_LLEQK(Propionyl)TQESQK_] registered a collision cross section under setting [4] of 393.54 ± 0.65 Å².
In turn, “VTLEVGKVIQQGR [_VTLEVGK(Propionyl)VIQQGR_]” gave a collision cross section under setting [4] of 410.06 ± 0.37 Å².
The sequence “KDYQPGITFIVVQK [_KDYQP(Hydroxyproline)GITFIVVQK_]” returned a collision cross section under setting [5] of 502.4 Å².
Take “ITLSKHQNVQLPR [_ITLSK(GlyGly (K))HQNVQLPR_]”: the collision cross section is, setting by setting: under setting [6], 441.27 Å²; under setting [7], 493.46 ± 2 Å².
Under setting [8], “TPSSFRQPFTPTSR [_TPSSFR(Methyl (R))QPFTPTSR_]” gave a collision cross section of 481.78 ± 1.9 Å².
With “VDVEVPDVSLEGPEGKLK [_VDVEVPDVSLEGPEGK(Crotonyl)LK_]”, the collision cross section under setting [9] is reported as 469.01 ± 1.1 Å².
Turning to “YTAILNQIPSHSSSIR [_YTAILNQIP(Hydroxyproline)SHSSSIR_]”, the collision cross section is, setting by setting: under setting [10], 473.92 ± 0.82 Å²; under setting [5], 518.79 ± 6.1 Å².
For DLATVYVDVLK [_DLATVY(Nitro (Y))VDVLK_], under setting [11], the collision cross section is recorded as 387.27 ± 0.74 Å².
“ATVASSTQKFQDLGVK [_ATVASSTQK(Dimethyl (K))FQDLGVK_]”: the collision cross section runs as follows: under setting [12], 461.58 ± 1.2 Å²; under setting [13], 471.81 ± 2.1 Å².
For ITGKNQVTATK [_ITGK(Succinyl)NQVTATK_], the collision cross section reads like this: under setting [14], 364.93 ± 0.74 Å²; under setting [15], 446.25 Å².
Sequence “VFIGNLNTLVVKKK [_VFIGNLNTLVVK(hydroxyisobutyryl)KK_]” gave a collision cross section under setting [16] of 515.31 ± 2.1 Å².
Consider LAEEENKAK [_LAEEENK(Dimethyl (K))AK_], for which the collision cross section by setting is: under setting [12], 348.03 ± 0.59 Å²; under setting [13], 411.22 ± 2.8 Å².
Consider “SLGEPAAGEGSAKR [_SLGEPAAGEGSAK(Gluratylation)R_]”, for which the collision cross section stood at 384.54 ± 0.66 Å² (charge state: 2, modification: Glutarylation) and 479.54 ± 1 Å² (charge state: 3, modification: Glutarylation).
Turning to “DTGEKLTVAENEAETK [_DTGEK(Butyryl)LTVAENEAETK_]”, the collision cross section (charge state: 2, modification: Butyryl) stood at 448.65 ± 0.25 Å².
Under setting [17], IGNSYFKEEK [_IGNSYFK(Biotin)EEK_] returned a collision cross section of 398.98 Å².
Turning to ASNAAVKLAESK [_ASNAAVK(Malonyl)LAESK_], under setting [18], the collision cross section was found to be 371.16 ± 0.62 Å².
Sequence “SNEEGSEEKGPEVR [_SNEEGSEEK(Formyl)GPEVR_]” had a collision cross section under setting [19] of 397.09 ± 0.55 Å².
As to “LTSLNVKYNNDK [_LTSLNVK(Dimethyl (K))YNNDK_]”, the collision cross section reads like this: under setting [12], 409.23 ± 0.76 Å²; under setting [13], 464.81 ± 1.6 Å².
Sequence “FSAYIKNSNPALNDNLEK [_FSAYIK(Formyl)NSNPALNDNLEK_]” came in with a collision cross section under setting [19] of 479.47 ± 1.3 Å² and a collision cross section under setting [20] of 528.92 ± 9.9 Å².
On to “PSVGSQSNQAGQGKR [_PSVGSQSNQAGQGK(hydroxyisobutyryl)R_]”, for which the collision cross section is recorded as 418.62 ± 0.53 Å² under setting [21] and 477.11 ± 9.7 Å² under setting [16].
In turn, KFGVLSDNFK [_K(GlyGly (K))FGVLSDNFK_] displayed a collision cross section under setting [6] of 380.5 ± 0.25 Å² and a collision cross section under setting [7] of 435.06 ± 2 Å².
Take VETTVTSLKTK [_VETTVTSLK(Propionyl)TK_]: under setting [4], the collision cross section came out at 382.91 ± 0.92 Å².
SDDESSQKDIK [_SDDESSQK(Biotin)DIK_] had a collision cross section under setting [17] of 393.46 Å².
As for ASEALLKQLK [_ASEALLK(Formyl)QLK_], the collision cross section under setting [19] stood at 369.4 ± 0.89 Å².
Consider “ASNAAVKLAESK [_ASNAAVK(Methyl (K))LAESK_]”, for which the collision cross section turned out to be 380.84 ± 0.65 Å² under setting [1] and 450.44 ± 4.8 Å² under setting [2].
Under setting [4], “GFALVGVGSEASSKK [_GFALVGVGSEASSK(Propionyl)K_]” had a collision cross section of 411.51 Å².
In the case of IGAEVYHHLK [_IGAEVY(Phospho (Y))HHLK_], the collision cross section under setting [22] turned out to be 385.73 ± 0.77 Å².
As to DVNAAIAAIKTK [_DVNAAIAAIK(Succinyl)TK_], the collision cross section came to 407.52 ± 0.54 Å² under setting [14] and 461.32 Å² under setting [15].
“GYLGPEQLPDCLK [_GY(Phospho (Y))LGPEQLPDCLK_]”: the collision cross section under setting [22] came to 400.34 ± 0.08 Å².
On to “GPKGQQGEPGPK [_GPKGQQGEP(Hydroxyproline)GPK_]”, for which the collision cross section is, setting by setting: under setting [10], 357.43 ± 1.4 Å²; under setting [5], 444.16 ± 2 Å².
For LEKTIDDLEEK [_LEK(GlyGly (K))TIDDLEEK_], the collision cross section is listed as 403.14 ± 0.36 Å² under setting [6] and 473.69 ± 1.1 Å² under setting [7].
For the sequence “THLGEALAPLSK [_THLGEALAPLS(HexNAc (ST))K_]”, the collision cross section by setting is: under setting [23], 397.68 ± 0.13 Å²; under setting [24], 475.05 ± 25 Å².
Turning to “DAEAAEATAEGALKAEK [_DAEAAEATAEGALK(Crotonyl)AEK_]”, the collision cross section amounted to 474.87 ± 0.81 Å² under setting [9] and 545.42 ± 1.3 Å² under setting [3].
IGNSYFKEEK [_IGNSYFK(Malonyl)EEK_]: the collision cross section under setting [18] amounted to 378.34 Å².
LNAIYQNNLTK [_LNAIY(Nitro (Y))QNNLTK_] displayed a collision cross section under setting [11] of 384.56 ± 0.55 Å².
Take “IHVQSSSDSSDEPAEKR [_IHVQSSSDSSDEPAEK(Methyl (K))R_]”: the collision cross section worked out at 448.84 Å² under setting [1] and 522.27 ± 1 Å² under setting [2].
“SLFFGGKGAPLQR [_SLFFGGK(Methyl (K))GAPLQR_]” registered a collision cross section under setting [1] of 405.87 ± 0.92 Å² and a collision cross section under setting [2] of 448.66 ± 4 Å².
For “DKALPLEAEVAPVK [_DK(Trimethyl (K))ALPLEAEVAPVK_]”, the collision cross section is, setting by setting: (charge state: 2, modification: Trimethyl (K)) 415.71 ± 1.1 Å²; under setting [25], 491.82 ± 2.4 Å².
On to “IVFSGNLFQHQEDSKK [_IVFSGNLFQHQEDSK(Formyl)K_]”, for which the collision cross section reads like this: under setting [19], 496.72 ± 1.3 Å²; under setting [20], 530.13 ± 1.3 Å².
ISALQGKLSK [_ISALQGK(Malonyl)LSK_]: the collision cross section under setting [18] stood at 349.78 ± 0.6 Å².
“TFGKAAGPSLSHTSGGTQSK [_TFGK(Methyl (K))AAGPSLSHTSGGTQSK_]”: the collision cross section under setting [2] was determined as 525.9 ± 1.3 Å².
In the case of FTEYETQVK [_FTEY(Nitro (Y))ETQVK_], the collision cross section under setting [11] is 363.94 ± 0.94 Å².
Under setting [25], “FGTINIVHPKLGSYTK [_FGTINIVHPK(Trimethyl (K))LGSYTK_]” returned a collision cross section of 502.05 ± 2.2 Å².
“GYGVIFANGNR [_GY(Phospho (Y))GVIFANGNR_]” came in with a collision cross section under setting [22] of 364.42 ± 0.064 Å².
Sequence “HHAAYVNNLNVTEEK [_HHAAY(Phospho (Y))VNNLNVTEEK_]” registered a collision cross section under setting [22] of 438.56 Å² and a collision cross section (charge state: 3, modification: Phospho (Y)) of 495.42 ± 1.2 Å².
As for “KSQAGASELGPFSDPR [_KSQAGASELGPFS(HexNAc (ST))DPR_]”, the collision cross section under setting [24] amounted to 503.83 ± 1.1 Å².
“ITESVAETAQTIKK [_ITESVAETAQTIK(Methyl (K))K_]”: the collision cross section runs as follows: under setting [1], 444.7 ± 2.5 Å²; under setting [2], 507.98 ± 2.8 Å².
With “GGPGSTLSFVGKR [_GGPGSTLSFVGK(Acetyl (K))R_]”, the collision cross section runs as follows: (charge state: 2, modification: Acetyl (K)) 381.14 ± 0.21 Å²; (charge state: 3, modification: Acetyl (K)) 429.09 ± 1.1 Å².
GSLEKGSPEDK [_GSLEK(Formyl)GSPEDK_] returned a collision cross section under setting [19] of 358.29 ± 0.88 Å².
As to “DASTLQSQKAEGTGDAK [_DASTLQSQK(Methyl (K))AEGTGDAK_]”, the collision cross section is, setting by setting: under setting [1], 440.39 ± 1.8 Å²; under setting [2], 487.49 ± 2.4 Å².
“SDDESSQKDIK [_SDDESSQK(hydroxyisobutyryl)DIK_]” displayed a collision cross section under setting [21] of 383.53 ± 0.55 Å².
With “DSSPTTNSKLSALQR [_DSSPTTNSK(Formyl)LSALQR_]”, the collision cross section was 427.17 ± 1.8 Å² under setting [19] and 491.37 ± 1.3 Å² under setting [20].
As to “PANEKATDDYHYEK [_PANEK(Malonyl)ATDDYHYEK_]”, for the setting “charge state: 3, modification: Malonyl”, the collision cross section worked out at 498.89 ± 1.6 Å².
In the case of “GARLPGPVSSAR [_GAR(Methyl (R))LPGPVSSAR_]”, the collision cross section amounted to 360.12 ± 1.2 Å² (charge state: 2, modification: Methyl (R)) and 474.74 ± 8.7 Å² under setting [8].
With “VEPIHAVVLPRGK [_VEPIHAVVLPR(Citrullination (R))GK_]”, the collision cross section is listed as 406.23 ± 0.55 Å² (charge state: 2, modification: Citrullination (R)) and 492.34 ± 18 Å² (charge state: 3, modification: Citrullination (R)).
Under setting [11], DYSVTANSK [_DY(Nitro (Y))SVTANSK_] had a collision cross section of 331.98 ± 0.55 Å².
“VDGDTQTTVEK [_VDGDTQTT(HexNAc (ST))VEK_]” had a collision cross section under setting [23] of 383.53 ± 0.58 Å².
